Target: CH31 IgG monoclonal antibody
Experiment: SPR

t1/2 [min] | Kd [nM] | koff [s⁻¹] | Substance
4.9 | – | – | GT6 tetramer (biotinylated eOD-GT6 on streptavidin) (from UniProt P22629 25-183) (complex)
44.4 | – | – | GT8 tetramer (biotinylated eOD-GT8 on streptavidin) (from UniProt P22629 25-183) (complex)
– | 5200 | > 0.01 | eOD-GT6-Avi-3C-His (designed binder)
– | 308 | > 0.01 | eOD-GT8_AviHis (designed binder)

Reference: article PMC9837990
